Results reported in publication PMC5768801, “The PII signaling protein from red algae represents an evolutionary link between cyanobacterial and Chloroplastida PII proteins” (Scientific Reports, 2018).

Tests used:
[1] = target: T1, N-acetyl-L-glutamate kinase from Synechocystis sp. PCC 6803 with an N-terminal His6 tag (Synechocystis sp. PCC 6803) (UniProt P73326)
T1 sequence: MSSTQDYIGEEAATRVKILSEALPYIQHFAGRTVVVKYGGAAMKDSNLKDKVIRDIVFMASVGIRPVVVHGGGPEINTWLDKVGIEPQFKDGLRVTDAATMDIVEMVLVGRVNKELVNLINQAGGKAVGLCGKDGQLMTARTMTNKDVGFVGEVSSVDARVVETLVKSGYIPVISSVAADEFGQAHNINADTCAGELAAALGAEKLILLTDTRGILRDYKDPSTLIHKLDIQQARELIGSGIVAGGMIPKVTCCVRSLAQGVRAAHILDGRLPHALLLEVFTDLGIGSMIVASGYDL

[2] = target: T1, N-acetyl-L-glutamate kinase from Synechocystis sp. PCC 6803 with an N-terminal His6 tag (Synechocystis sp. PCC 6803); remark: listed apart in the source

Chain of PII protein from the red alga Porphyra purpurea with a C-terminal Strep-tag II (P51254 whole entry): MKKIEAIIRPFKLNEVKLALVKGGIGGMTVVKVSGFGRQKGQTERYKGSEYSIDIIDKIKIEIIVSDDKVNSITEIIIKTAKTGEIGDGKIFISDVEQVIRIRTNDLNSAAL

What does the source list for “PII protein from the red alga Porphyra purpurea with a C-terminal Strep-tag II (from UniProt P51254 1-112) (natural protein)”?
relief of ScNAGK from feedback inhibition by arginine: rise of the IC50 for arginine on addition of PpPII (free ScNAGK: IC50 6.2 µM), coupled NAGK assay, without glutamine [1]: 4 fold; catalytic efficiency (Kcat/Km) of ScNAGK in the coupled NAGK activity assay, PpPII-complexed (free ScNAGK: 0.55 × 10^3 s^−1M^−1); NAG varied at 10 mM ATP [2]: 2360 s^−1M^−1
